Test system: MS2 coat protein
Assay: apparent KD of MS2 coat protein; designed switch direction (-1 OFF switch, 1 ON switch): 1; higher = weaker reporter binding
In short: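 Designed RNA switches sharing common flanks were transcribed on Illumina chips by stalled E. coli RNA polymerase. They were titrated with SNAP-549-labelled MS2 coat protein, from 0.7 or 1.5 nM doubling to 3 µM, in Tris-HCl pH 7.5 buffer with KCl, MgCl2, BSA, DTT, tRNA and Tween-20. Titrations ran without input, with 200 uM small-molecule ligand, or with an oligonucleotide input. The apparent KD of each design is the median over its clusters, after curve-fitting of normalised cluster fluorescence.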

[1] = input ligand: microRNA oligo, concentration not stated
[2] = Eterna round: R95, input ligand: FMN 200 uM
[3] = Eterna round: R95, input ligand: microRNA oligo, concentration not stated
[4] = Eterna round: R95, input ligand: none

Sequence	apparent KD of MS2 coat protein (input ligand: FMN 200 uM) [nM]	apparent KD of MS2 coat protein [1] [nM]	apparent KD of MS2 coat protein (input ligand: none) [nM]	apparent KD of MS2 coat protein [2] [nM]	apparent KD of MS2 coat protein [3] [nM]	apparent KD of MS2 coat protein [4] [nM]
GUAAAGAAUUAAGGAUAUUGAAUACAUAUGUUUAACAUGAGGAUCACCCAUGUGGGUUGCGGUAUCGAGAAGGUAAAAUAAAAG [Mat - Same State NG 2 - JL mod - D7] (Eterna round: R96, puzzle: Same State NG 2)	137	105	124			
GAGUGGUAAAGAGGAUAUGCAUUGUUAUUAAAUGCAGAAGGUUUUAACAUGAGGAUCACCCAUGUAGGACUAUUCCUGUGUUUC [Parity 65 - Jieux - Same State NG 1] (Eterna round: R96, puzzle: Same State NG 1)		11.4				
AUAAGUUUGAUGCUCGUCUCUUCGUACAGACAUGAGGAUCACCCAUGUAGUCGGGAAGUAGCCCGGCCAGUAUGACC [Usraisqu] (puzzle: Sensor for hsa-mir-208a)				197	40.5	468
GAAAGAGGAAGCGAGGAUAUCGUGUUGAGUACAUGAGGAUCACCCAUGUUGUAGGUAGAGGUAGGCGAGAAGGCGCAGGAGAAGA [JR_SS2_Sub0101] (puzzle: Same State 2)				60	40.6	55.4
AUUGCUUUCGCAGGAUAUGAUGCGAAAAUUGCGUCAGAAGGGUGGAGUCUCUCAUUGCAAGAGGACAUGAGGAUCACCCAUGUC [SameState NG1 #86] (Eterna round: R96, puzzle: Same State NG 1)	177	245	322			
AAUUUAAUACAUGAGGAUCACCCAUGUAAUACUAGUAAGAUCUAGGAUAUCAGCUCGUUUAGAGCUGAGAAGGAGAUCACAUGU [SSNG3/19-C3] (Eterna round: R96, puzzle: Same State NG 3)		62.1				
AGUAGUGUAACAUGAGGAUCACCCAUGUAAGUAGAUGUAACCUAGGAUAUGGAUGAUAUGUUAGUCCAGAAGGAGGAUUGUUUA [JR_SSNG3_Sub038] (Eterna round: R96, puzzle: Same State NG 3)	20.6	36.7	34.8			
UUGAAGAAUUAAGGAUAUCGAGUCGUCAGAUUAUACAUGAGGAUCACCCAUGUGGGUUGCGGUAUCGAGAAGGUAAAUUACAAG [JL JR Sub099 mod 5] (Eterna round: R96, puzzle: Same State NG 2)	37.5	58.4	60			
CGUCCGGCCUGUGCUGGCCGGUGGCUUGUACAUGAGGAUCACCCAUGUUCUUGUGCUGGCUUUUUGCUCGUCGUGUG [salish99_mir208a_r3_023] (puzzle: Sensor for hsa-mir-208a)				32.6	19.8	37.9
GGAGCCGGCCUAGGAUAUUUCAUAAUAUUACAUGAGGAUCACCCAUGUAGGCCAGAAGGCCUUGGGAAGAAGGAGGUCGGCUCC [Loop Effect - U26,U28,U29] (Eterna round: R96, puzzle: Same State NG 2)		30.7				
AAAAGAAACACAGGAUAUACCGCACUUAACGCGGUAGAAGGGUGGGACAUGAGGAUCACCCAUGUGGUCUGGGCGCCAGACCGC [Esratean] (Eterna round: R96, puzzle: Same State NG 1)	29.1	23.3	22			
GUGCGGCUGCCACAGGAUAUACGUGGAUCGACAUGAGGAUCACCCAUGUAUAUCCUAAUAAUUGCGUAGAAGGGUGGUCAGCCGG [Anzaenenes] (puzzle: Same State 2)				143	608	825
AACAAUCUUUCUGAGGAUAUCAUGAAAUAAACAUGAGGAUCACCCAUGUGCAGGAAAACUGCAUAUGAGAAGGCAGAUAGAUUGA [salish99_ss2_r3_024] (puzzle: Same State 2)				43.3	414	1220
UUAUUAUUUAUAGGAUAUUGAUGUUUGCUAGUACAAGAAGGAUAAACAUGAGGAUCACCCAUGUAGUUUAAGGUUAGUUUGUUU [JR_SSNG1_Sub078] (Eterna round: R96, puzzle: Same State NG 1)		25.2				
ACAAGCUUUUUAGGAGAGAAAGGUGGGAUACAUGAGGAUCACCCAUGUAUGGUAGUUAAUAGUGGACCUCGUCUUAU [JR_SHM208A_Sub082] (puzzle: Sensor for hsa-mir-208a)				46.5	21.7	64.1
AGGCUCAGACGAGGAUAUAUGUGAUCACAUGAGGAUCACCCAUGUCUCGAGCUUCGGCUCGAGACAUAGAAGGUGUCUGAGCCA [SSNG2/3-C1] (Eterna round: R96, puzzle: Same State NG 2)	76.4	3.03	32.3			

Sequence	apparent KD of MS2 coat protein (input ligand: FMN 200 uM) [nM]	apparent KD of MS2 coat protein [1] [nM]	apparent KD of MS2 coat protein (input ligand: none) [nM]	apparent KD of MS2 coat protein [2] [nM]	apparent KD of MS2 coat protein [3] [nM]	apparent KD of MS2 coat protein [4] [nM]
CCAUAGUACAAUUUAGAUCUACAUGAGGAUCACCCAUGUACUGAGGAUAUCAGCUCGAUUAGAGCUGAGAAGGCAGAAUUAAUU [SSNG3/5-A2] (Eterna round: R96, puzzle: Same State NG 3)	58.4	96.8	122			
CGUCCGGCCUGUGCUGGCCGGAAGCAUGUACAUGAGGAUCACCCAUGUUCAUGUGCUGGCUUUUUGCUCGUCUUGUG [salish99_mir208a_011] (puzzle: Sensor for hsa-mir-208a)				13.9	11.1	14
CUGAAAUGUCAAGGAUAUCACGUCGAUUAGACGUGAGAAGGUGAUCUGCACAUGAGGAUCACCCAUGUGUUACAUGGAAUUCAG [Brourd's SSNG1/1-A2 mod 13] (Eterna round: R96, puzzle: Same State NG 1)	166	406	503			
GAAGACAUAGUUCAGGAUAUAGGAAUAGUCACAUGAGGAUCACCCAUGUGCAUUUAUAUGCGCACUUAGAAGGGAGGUAGUUAUC [SameState2 Malc#23] (Eterna round: R96, puzzle: Same State 2)	39.4	29.4	39.4			
AGAGGAGGCGCAGGAUAUACGACGGAGGACGUGGUAGAAGGGUGCAUGCGAUAACAUGAGGAUCACCCAUGUACCGCGCGACGA [AK SSNG1-V2-17] (Eterna round: R96, puzzle: Same State NG 1)	210	30.2	198			
UGCAUACAUGAGGAUCACCCAUGUCAACUUAGUCGAGGAUAUGGGCAGCCGUGAGGCGAACCAGAAGGCGAAUUGU [JL-ss1-3.02 ViennaUCT mod] (puzzle: Same State 1)				18.5	43.8	45.7
GCGGUACCUAACAUGAGGAUCACCCAUGUUCCGGAAACGGCACAGGAUAUCUGUCCGAAAAGGUCAGAGAAGGGUGAAAACCGC [Fiskers NG3ss - 94] (Eterna round: R96, puzzle: Same State NG 3)	489	396	478			
UUGGUGUAGAUACAGGAUAUGUUGCUCGUAACAUGAGGAUCACCCAUGUAUCUAUGAGAUUAAAUGCAGAAGGGUGCACACCACU [salish99_ss2_r3_087] (puzzle: Same State 2)				39.6	341	541
GUAGCAUACCGAGGAUAUUCAUAUUAUAAACAUGAGGAUCACCCAUGUGGCCGAUUACGGCCUUGGGAGAAGGCGGAAUGCUAC [Xeonanis - 20 Mod17] (Eterna round: R96, puzzle: Same State NG 2)	44.6	641	909			
UGGCUGAGUCGAGGAUAUUAUGGAUCCUCUAAUACAUGAGGAUCACCCAUGUAAUUAAUUAUACAUGAGAAGGUGACUCAGCCA [SSNG2/12-B2] (Eterna round: R96, puzzle: Same State NG 2)	463	52.3	342			
AGUCCAGCCUGAGCUGGACAAAGGCAUGUACAUGAGGAUCACCCAUGUCAUGUACAAGCUUUUUGCUCGUCUUAAUA [Zipper 49 - 1] (Eterna round: R96, puzzle: Sensor for hsa-mir-208a)	211	12.6	178			
GGAAACAGAGGAGGAUAUGCAGAGGAUCACCCUGUAGAAGGCCUCGAAAGGAGGAUAUGCAGAGGAUCACCCUGUAGAAGGCCU [pwkr ssNG DX.26] (Eterna round: R96, puzzle: Same State NG 1)	72.1	156	208			
ACAUGAGGAUCACCCAUGUCUUUAUCCGAUUCUUCAUUUACGUAGGAUAUCGUCUAUACUAUCAUCGAGAAGGACGUUCUUUAA [JR_SSNG3_Sub070] (Eterna round: R96, puzzle: Same State NG 3)		13.9				
UAAUGUUAGCGAGGAUAUCGUUUAUUGAAGUUACGAGAAGGCGCUCUUCUUACAUGAGGAUCACCCAUGUCUGUUUUGCAUGAU [JR_SSNG1_Sub068] (Eterna round: R96, puzzle: Same State NG 1)		50				
UGUUGUAUUACAGGAUAUCUAUUAUUUAUAUUUAGAGAAGGGUAUUCACAUGAGGAUCACCCAUGUAUAUACGAGGAAGUUGUG [JMF's solution 19] (Eterna round: R96, puzzle: Same State NG 1)		36.4				
UUAAAACAUGAGGAUCACCCAUGUCAACAAAGUCGAGGAUAUGGGCAAUUAUUAUUAGAACCAGAAGGCGAAUAUU [Mat - Same State 1 - Mod of UCT - D28] (puzzle: Same State 1)				27.1	260	289

Reference: the supplement of paper PMC9170038
